Sequences and labels used below:
B1: SEQ ID NO: 1698 (peptide)
peptide: Ac-IWIAQALR[R8][Cba]GDAFN[S5]YYA-NH2
modifications: staple 9-16
SMILES: CC[C@H](C)[C@H](NC(C)=O)C(=O)N[C@@H](Cc1c[nH]c2ccccc12)C(=O)N[C@H](C(=O)N[C@@H](C)C(=O)N[C@@H](CCC(N)=O)C(=O)N[C@@H](C)C(=O)N[C@@H](CC(C)C)C(=O)N[C@@H](CCCNC(=N)N)C(=O)N[C@]1(C)CCCCCCC=CCCC[C@@](C)(C(=O)N[C@@H](Cc2ccc(O)cc2)C(=O)N[C@@H](Cc2ccc(O)cc2)C(=O)N[C@@H](C)C(N)=O)NC(=O)[C@H](CC(N)=O)NC(=O)[C@H](Cc2ccccc2)NC(=O)[C@H](C)NC(=O)[C@H](CC(=O)O)NC(=O)CNC(=O)[C@H](CC2CCC2)NC1=O)[C@@H](C)CC
B2: SEQ ID NO: 1713 (peptide)
peptide: Ac-IW[Chg]AQALR[R8]IGDAFN[S5]YYA-NH2
modifications: staple 9-16
SMILES: CC[C@H](C)[C@H](NC(C)=O)C(=O)N[C@@H](Cc1c[nH]c2ccccc12)C(=O)N[C@H](C(=O)N[C@@H](C)C(=O)N[C@@H](CCC(N)=O)C(=O)N[C@@H](C)C(=O)N[C@@H](CC(C)C)C(=O)N[C@@H](CCCNC(=N)N)C(=O)N[C@]1(C)CCCCCCC=CCCC[C@@](C)(C(=O)N[C@@H](Cc2ccc(O)cc2)C(=O)N[C@@H](Cc2ccc(O)cc2)C(=O)N[C@@H](C)C(N)=O)NC(=O)[C@H](CC(N)=O)NC(=O)[C@H](Cc2ccccc2)NC(=O)[C@H](C)NC(=O)[C@H](CC(=O)O)NC(=O)CNC(=O)[C@H]([C@@H](C)CC)NC1=O)C1CCCCC1
notes: also called Ac-IWChgAQALR$r8IGDAFN$YYA-NH2
B3: SEQ ID NO: 1710 (peptide)
peptide: Ac-IWIAQALR[R8]IGDAFN[S5]Y[Phe(4-F)]A-NH2
modifications: staple 9-16
SMILES: CC[C@H](C)[C@H](NC(C)=O)C(=O)N[C@@H](Cc1c[nH]c2ccccc12)C(=O)N[C@H](C(=O)N[C@@H](C)C(=O)N[C@@H](CCC(N)=O)C(=O)N[C@@H](C)C(=O)N[C@@H](CC(C)C)C(=O)N[C@@H](CCCNC(=N)N)C(=O)N[C@]1(C)CCCCCCC=CCCC[C@@](C)(C(=O)N[C@@H](Cc2ccc(O)cc2)C(=O)N[C@@H](Cc2ccc(F)cc2)C(=O)N[C@@H](C)C(N)=O)NC(=O)[C@H](CC(N)=O)NC(=O)[C@H](Cc2ccccc2)NC(=O)[C@H](C)NC(=O)[C@H](CC(=O)O)NC(=O)CNC(=O)[C@H]([C@@H](C)CC)NC1=O)[C@@H](C)CC
B4: SEQ ID NO: 1701 (peptide)
peptide: Ac-IWIAQALR[R8][tBuAla]GDAFN[S5]YYA-NH2
modifications: staple 9-16
SMILES: CC[C@H](C)[C@H](NC(C)=O)C(=O)N[C@@H](Cc1c[nH]c2ccccc12)C(=O)N[C@H](C(=O)N[C@@H](C)C(=O)N[C@@H](CCC(N)=O)C(=O)N[C@@H](C)C(=O)N[C@@H](CC(C)C)C(=O)N[C@@H](CCCNC(=N)N)C(=O)N[C@]1(C)CCCCCCC=CCCC[C@@](C)(C(=O)N[C@@H](Cc2ccc(O)cc2)C(=O)N[C@@H](Cc2ccc(O)cc2)C(=O)N[C@@H](C)C(N)=O)NC(=O)[C@H](CC(N)=O)NC(=O)[C@H](Cc2ccccc2)NC(=O)[C@H](C)NC(=O)[C@H](CC(=O)O)NC(=O)CNC(=O)[C@H](CC(C)(C)C)NC1=O)[C@@H](C)CC
B5: SEQ ID NO: 1706 (peptide)
peptide: Ac-IW[αMeL]AQALR[R8]IGDAFN[S5]YYA-NH2
modifications: staple 9-16
SMILES: CC[C@H](C)[C@H](NC(C)=O)C(=O)N[C@@H](Cc1c[nH]c2ccccc12)C(=O)N[C@@](C)(CC(C)C)C(=O)N[C@@H](C)C(=O)N[C@@H](CCC(N)=O)C(=O)N[C@@H](C)C(=O)N[C@@H](CC(C)C)C(=O)N[C@@H](CCCNC(=N)N)C(=O)N[C@]1(C)CCCCCCC=CCCC[C@@](C)(C(=O)N[C@@H](Cc2ccc(O)cc2)C(=O)N[C@@H](Cc2ccc(O)cc2)C(=O)N[C@@H](C)C(N)=O)NC(=O)[C@H](CC(N)=O)NC(=O)[C@H](Cc2ccccc2)NC(=O)[C@H](C)NC(=O)[C@H](CC(=O)O)NC(=O)CNC(=O)[C@H]([C@@H](C)CC)NC1=O
notes: also called Ac-IWAmLAQALR$r8IGDAFN$YYA-NH2
B6: SEQ ID NO: 1712 (peptide)
peptide: Ac-IW[hLeu]AQALR[R8]IGDAFN[S5]YYA-NH2
modifications: staple 9-16
SMILES: CC[C@H](C)[C@H](NC(C)=O)C(=O)N[C@@H](Cc1c[nH]c2ccccc12)C(=O)N[C@@H](CCC(C)C)C(=O)N[C@@H](C)C(=O)N[C@@H](CCC(N)=O)C(=O)N[C@@H](C)C(=O)N[C@@H](CC(C)C)C(=O)N[C@@H](CCCNC(=N)N)C(=O)N[C@]1(C)CCCCCCC=CCCC[C@@](C)(C(=O)N[C@@H](Cc2ccc(O)cc2)C(=O)N[C@@H](Cc2ccc(O)cc2)C(=O)N[C@@H](C)C(N)=O)NC(=O)[C@H](CC(N)=O)NC(=O)[C@H](Cc2ccccc2)NC(=O)[C@H](C)NC(=O)[C@H](CC(=O)O)NC(=O)CNC(=O)[C@H]([C@@H](C)CC)NC1=O
notes: also called Ac-IWhLAQALR$r8IGDAFN$YYA-NH2
B7: SEQ ID NO: 1700 (peptide)
peptide: Ac-IWIAQALR[R8][Cha]GDAFN[S5]YYA-NH2
modifications: staple 9-16
SMILES: CC[C@H](C)[C@H](NC(C)=O)C(=O)N[C@@H](Cc1c[nH]c2ccccc12)C(=O)N[C@H](C(=O)N[C@@H](C)C(=O)N[C@@H](CCC(N)=O)C(=O)N[C@@H](C)C(=O)N[C@@H](CC(C)C)C(=O)N[C@@H](CCCNC(=N)N)C(=O)N[C@]1(C)CCCCCCC=CCCC[C@@](C)(C(=O)N[C@@H](Cc2ccc(O)cc2)C(=O)N[C@@H](Cc2ccc(O)cc2)C(=O)N[C@@H](C)C(N)=O)NC(=O)[C@H](CC(N)=O)NC(=O)[C@H](Cc2ccccc2)NC(=O)[C@H](C)NC(=O)[C@H](CC(=O)O)NC(=O)CNC(=O)[C@H](CC2CCCCC2)NC1=O)[C@@H](C)CC
B8: SEQ ID NO: 1705 (peptide)
peptide: Ac-[αMeL]WIAQALR[R8]IGDAFN[S5]YYA-NH2
modifications: staple 9-16
SMILES: CC[C@H](C)[C@H](NC(=O)[C@H](Cc1c[nH]c2ccccc12)NC(=O)[C@](C)(CC(C)C)NC(C)=O)C(=O)N[C@@H](C)C(=O)N[C@@H](CCC(N)=O)C(=O)N[C@@H](C)C(=O)N[C@@H](CC(C)C)C(=O)N[C@@H](CCCNC(=N)N)C(=O)N[C@]1(C)CCCCCCC=CCCC[C@@](C)(C(=O)N[C@@H](Cc2ccc(O)cc2)C(=O)N[C@@H](Cc2ccc(O)cc2)C(=O)N[C@@H](C)C(N)=O)NC(=O)[C@H](CC(N)=O)NC(=O)[C@H](Cc2ccccc2)NC(=O)[C@H](C)NC(=O)[C@H](CC(=O)O)NC(=O)CNC(=O)[C@H]([C@@H](C)CC)NC1=O
B9: SEQ ID NO: 1702 (peptide)
peptide: Ac-IWIAQALR[R8][hhL]GDAFN[S5]YYA-NH2
modifications: staple 9-16
SMILES: CC[C@H](C)[C@H](NC(C)=O)C(=O)N[C@@H](Cc1c[nH]c2ccccc12)C(=O)N[C@H](C(=O)N[C@@H](C)C(=O)N[C@@H](CCC(N)=O)C(=O)N[C@@H](C)C(=O)N[C@@H](CC(C)C)C(=O)N[C@@H](CCCNC(=N)N)C(=O)N[C@]1(C)CCCCCCC=CCCC[C@@](C)(C(=O)N[C@@H](Cc2ccc(O)cc2)C(=O)N[C@@H](Cc2ccc(O)cc2)C(=O)N[C@@H](C)C(N)=O)NC(=O)[C@H](CC(N)=O)NC(=O)[C@H](Cc2ccccc2)NC(=O)[C@H](C)NC(=O)[C@H](CC(=O)O)NC(=O)CNC(=O)[C@H](CCCC(C)C)NC1=O)[C@@H](C)CC
B10: SEQ ID NO: 1711 (peptide)
peptide: Ac-IW[tBuAla]AQALR[R8]IGDAFN[S5]YYA-NH2
modifications: staple 9-16
SMILES: CC[C@H](C)[C@H](NC(C)=O)C(=O)N[C@@H](Cc1c[nH]c2ccccc12)C(=O)N[C@@H](CC(C)(C)C)C(=O)N[C@@H](C)C(=O)N[C@@H](CCC(N)=O)C(=O)N[C@@H](C)C(=O)N[C@@H](CC(C)C)C(=O)N[C@@H](CCCNC(=N)N)C(=O)N[C@]1(C)CCCCCCC=CCCC[C@@](C)(C(=O)N[C@@H](Cc2ccc(O)cc2)C(=O)N[C@@H](Cc2ccc(O)cc2)C(=O)N[C@@H](C)C(N)=O)NC(=O)[C@H](CC(N)=O)NC(=O)[C@H](Cc2ccccc2)NC(=O)[C@H](C)NC(=O)[C@H](CC(=O)O)NC(=O)CNC(=O)[C@H]([C@@H](C)CC)NC1=O
notes: also called Ac-IWTbaAQALR$r8IGDAFN$YYA-NH2
B11: SEQ ID NO: 1699 (peptide)
peptide: Ac-IWIAQALR[R8][hLeu]GDAFN[S5]YYA-NH2
modifications: staple 9-16
SMILES: CC[C@H](C)[C@H](NC(C)=O)C(=O)N[C@@H](Cc1c[nH]c2ccccc12)C(=O)N[C@H](C(=O)N[C@@H](C)C(=O)N[C@@H](CCC(N)=O)C(=O)N[C@@H](C)C(=O)N[C@@H](CC(C)C)C(=O)N[C@@H](CCCNC(=N)N)C(=O)N[C@]1(C)CCCCCCC=CCCC[C@@](C)(C(=O)N[C@@H](Cc2ccc(O)cc2)C(=O)N[C@@H](Cc2ccc(O)cc2)C(=O)N[C@@H](C)C(N)=O)NC(=O)[C@H](CC(N)=O)NC(=O)[C@H](Cc2ccccc2)NC(=O)[C@H](C)NC(=O)[C@H](CC(=O)O)NC(=O)CNC(=O)[C@H](CCC(C)C)NC1=O)[C@@H](C)CC

Starred links: 1 amine or outer side, 2 acyl side, 3 side chain; linkers in the order of their positions; H or OH if unused. Positions of bridges follow the written chain, without caps; N, C: chain ends. Non-standard residues stand in square brackets, D forms with d. hhL = hhLeu, CC(C)CCC[C@H](N[*:1])C(=O)[*:2]; Phe(4-F) = N[C@@H](Cc1ccc(F)cc1)C(=O)O; tBuAla = CC(C)(C)C[C@H](N)C(=O)O; R8 = C=CCCCCCC[C@@](C)(N)C(=O)O; Cha = N[C@@H](CC1CCCCC1)C(=O)O; αMeL = CC(C)C[C@](C)(N)C(=O)O; Cba = N[C@@H](CC1CCC1)C(=O)O; Chg = N[C@H](C(=O)O)C1CCCCC1; hLeu = CC(C)CC[C@H](N)C(=O)O; S5 = C=CCCC[C@](C)(N)C(=O)O

As a reminder, the Ki is a measure of affinity in units of concentration, obtained from inhibition or displacement. Read a high Ki as a looser hold on the target.

T1 sequence (Q07820 172-327 limits assumed): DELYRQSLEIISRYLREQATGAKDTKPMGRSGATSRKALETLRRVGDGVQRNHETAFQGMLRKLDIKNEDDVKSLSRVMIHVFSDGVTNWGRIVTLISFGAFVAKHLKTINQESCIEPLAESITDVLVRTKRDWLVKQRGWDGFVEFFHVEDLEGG

In one test the target is BCL-2 (UniProt P10415 1-217, limits assumed). The test can be described thus: Ki table, method not stated.
Chain of BCL-2 (P10415 1-217 limits assumed): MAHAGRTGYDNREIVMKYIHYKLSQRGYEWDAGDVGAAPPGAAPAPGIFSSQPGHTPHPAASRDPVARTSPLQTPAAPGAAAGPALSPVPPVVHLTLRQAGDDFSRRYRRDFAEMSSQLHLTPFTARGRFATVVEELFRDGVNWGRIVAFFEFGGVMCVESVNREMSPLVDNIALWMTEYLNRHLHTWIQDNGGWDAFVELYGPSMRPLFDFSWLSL
Take B1: the affinity corresponds to a Ki of 89 nM.
For B2, the Ki amounted to 38.9 nM.
The same measure, in the same setting: in the case of B3 it was 91.8 nM; in that of B4, 227 nM.
The same measure, in the same setting: the result for B5 reads 24.8 nM; that for B6, 36.5 nM; that for B7, 109 nM.
Still for that read-out and setting: the result for B8 reads 48.3 nM.
Regarding B9, affinity was put at a Ki of 23.1 nM.
Still for that read-out and setting: the result for B10 reads 36.6 nM; that for B11, 12.7 nM.

The next test addresses T1, MCL-1 (UniProt Q07820 172-327, limits assumed).
T1 construct: also called Myeloid cell leukemia 1
Kind of test: Ki table, method not stated.
The molecule B1 came in with a Ki of 26.6 nM.
Same read-out and setting: the result for B2 reads 4.6 nM; that for B3, 4.8 nM.
Same read-out and setting: the result for B4 reads 13.7 nM; that for B5, 19.8 nM; that for B6, 3.7 nM.
The same measure, in the same setting: the result for B7 reads 15.9 nM.
Turning to B8, the inhibition constant (Ki) turned out to be 5.2 nM.
B9 gave a Ki of 34.6 nM.
The same measure, in the same setting: the result for B10 reads 10.9 nM; that for B11, 13 nM.

In another test the target is BCL-XL (UniProt Q07817 1-209). The test can be described thus: Ki table, method not stated.
Chain of BCL-XL (Q07817 1-209): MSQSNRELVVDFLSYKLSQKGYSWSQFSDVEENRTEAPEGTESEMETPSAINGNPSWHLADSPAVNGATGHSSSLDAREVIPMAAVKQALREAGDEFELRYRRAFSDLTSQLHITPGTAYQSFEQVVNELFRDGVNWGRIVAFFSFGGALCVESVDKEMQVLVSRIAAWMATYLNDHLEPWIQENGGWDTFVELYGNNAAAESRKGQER
Molecule B1 registered an inhibition constant Ki of 27.5 nM.
The same measure, in the same setting: in the case of B2 it was 20.9 nM; in that of B3, 9.5 nM; in that of B4, 35.4 nM.
On the same count and under the same terms, the result for B5 reads 7.2 nM.
The same measure, in the same setting: in the case of B6 it was 17 nM; in that of B7, 7.1 nM.
On to B8, for which affinity was put at a Ki of 8.4 nM.
Still for that read-out and setting: the result for B9 reads 4 nM; that for B10, 17.2 nM.
Same read-out and setting: the result for B11 reads 6 nM.

(Values after patent publication US20180273587A1 (AILERON THERAPEUTICS, published 2018).)
